We go through one protein from article PMC12035558, “Structure of the Saccharolobus solfataricus GINS tetramer” (Acta Crystallographica Section F: Structural Biology …, 2025).

This series concerns the molecule itself. Kind of series: crystal structure; co-expressed and co-purified SsoGINS tetramer, 11 mg/ml in 20 mM Tris pH 8.3, 100 mM NaCl; hanging drop, 0.18 M triammonium citrate, 20%(w/v) PEG 3350, 291 K; space group P6_(3), 2.3 Å.

B1: Saccharolobus solfataricus GINS51 (natural protein)
chain: MLDELVKKELSEEEITEIKLEEIIKYITLIKKSKTFVSSEIRKEELKFLSELAESLFELRLSKVLEGKVGKGFDEFIFDIFKILKQFYVDLLTGRYIIYNDKIYCIVQKPLIYNDHRVNEGDVLVLPMREALPLIIASYLTPYKIDIEEQL
notes: GINS51 of Saccharolobus solfataricus, gene amplified from genomic DNA (ATCC 35092D-5); Two copies stand in the (GINS23)2(GINS51)2 tetramer; A subdomain (alpha-helical) comes first, B subdomain (with beta-strands) second; also called SsoGINS51; Sso51
As to B1, the binding result is listed as “binds”.
